# Test results from the supplement of paper PMC5998384.
# Experiments:
# HeLa Kyoto [1] = test: solubility in G1/S (NP-40 vs SDS abundance) (log2 ratio); higher = more soluble; settings: cell cycle stage: G1/S
# HeLa Kyoto [2] = test: melting temperature (median over replicates), in situ; higher = more thermally stable
# HeLa Kyoto [3] = test: solubility change mitosis vs G1/S (difference of NP-40 vs SDS log2 ratios) (log2 ratio difference); higher = more soluble in mitosis
# HeLa Kyoto [4] = test: thermal stability score vs G1/S (z-score of summed log2 fold changes over temperatures); higher = more thermally stable than in G1/S
# [5] = cell cycle stage: early G1 (4.5 h after nocodazole release)
# 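For melting temperature (median over replicates), in situ in this document: HeLa Kyoto cells synchronized by double thymidine or nocodazole block, proteins quantified by TMT10plex mass spectrometry, three independent biological replicates.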
# 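For solubility change mitosis vs G1/S (difference of NP-40 vs SDS log2 ratios) in this document: synchronized HeLa Kyoto cells (double thymidine block for G1/S, nocodazole release for mitosis), protein amounts in NP-40 versus SDS lysates quantified by mass spectrometry, three biological replicates.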
# 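For solubility in G1/S (NP-40 vs SDS abundance) in this document: HeLa Kyoto cells arrested at G1/S by double thymidine block, proteins quantified by TMT10plex mass spectrometry in mild NP-40 versus SDS extracts, three biological replicates.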
# 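For thermal stability score vs G1/S (z-score of summed log2 fold changes over temperatures) in this document: synchronized HeLa Kyoto cells, proteins quantified by TMT10plex mass spectrometry, three biological replicates, mitosis taken 0.5 h after nocodazole release, G1/S directly after double thymidine block.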
# Sequence of ATR (chain, as listed by the source): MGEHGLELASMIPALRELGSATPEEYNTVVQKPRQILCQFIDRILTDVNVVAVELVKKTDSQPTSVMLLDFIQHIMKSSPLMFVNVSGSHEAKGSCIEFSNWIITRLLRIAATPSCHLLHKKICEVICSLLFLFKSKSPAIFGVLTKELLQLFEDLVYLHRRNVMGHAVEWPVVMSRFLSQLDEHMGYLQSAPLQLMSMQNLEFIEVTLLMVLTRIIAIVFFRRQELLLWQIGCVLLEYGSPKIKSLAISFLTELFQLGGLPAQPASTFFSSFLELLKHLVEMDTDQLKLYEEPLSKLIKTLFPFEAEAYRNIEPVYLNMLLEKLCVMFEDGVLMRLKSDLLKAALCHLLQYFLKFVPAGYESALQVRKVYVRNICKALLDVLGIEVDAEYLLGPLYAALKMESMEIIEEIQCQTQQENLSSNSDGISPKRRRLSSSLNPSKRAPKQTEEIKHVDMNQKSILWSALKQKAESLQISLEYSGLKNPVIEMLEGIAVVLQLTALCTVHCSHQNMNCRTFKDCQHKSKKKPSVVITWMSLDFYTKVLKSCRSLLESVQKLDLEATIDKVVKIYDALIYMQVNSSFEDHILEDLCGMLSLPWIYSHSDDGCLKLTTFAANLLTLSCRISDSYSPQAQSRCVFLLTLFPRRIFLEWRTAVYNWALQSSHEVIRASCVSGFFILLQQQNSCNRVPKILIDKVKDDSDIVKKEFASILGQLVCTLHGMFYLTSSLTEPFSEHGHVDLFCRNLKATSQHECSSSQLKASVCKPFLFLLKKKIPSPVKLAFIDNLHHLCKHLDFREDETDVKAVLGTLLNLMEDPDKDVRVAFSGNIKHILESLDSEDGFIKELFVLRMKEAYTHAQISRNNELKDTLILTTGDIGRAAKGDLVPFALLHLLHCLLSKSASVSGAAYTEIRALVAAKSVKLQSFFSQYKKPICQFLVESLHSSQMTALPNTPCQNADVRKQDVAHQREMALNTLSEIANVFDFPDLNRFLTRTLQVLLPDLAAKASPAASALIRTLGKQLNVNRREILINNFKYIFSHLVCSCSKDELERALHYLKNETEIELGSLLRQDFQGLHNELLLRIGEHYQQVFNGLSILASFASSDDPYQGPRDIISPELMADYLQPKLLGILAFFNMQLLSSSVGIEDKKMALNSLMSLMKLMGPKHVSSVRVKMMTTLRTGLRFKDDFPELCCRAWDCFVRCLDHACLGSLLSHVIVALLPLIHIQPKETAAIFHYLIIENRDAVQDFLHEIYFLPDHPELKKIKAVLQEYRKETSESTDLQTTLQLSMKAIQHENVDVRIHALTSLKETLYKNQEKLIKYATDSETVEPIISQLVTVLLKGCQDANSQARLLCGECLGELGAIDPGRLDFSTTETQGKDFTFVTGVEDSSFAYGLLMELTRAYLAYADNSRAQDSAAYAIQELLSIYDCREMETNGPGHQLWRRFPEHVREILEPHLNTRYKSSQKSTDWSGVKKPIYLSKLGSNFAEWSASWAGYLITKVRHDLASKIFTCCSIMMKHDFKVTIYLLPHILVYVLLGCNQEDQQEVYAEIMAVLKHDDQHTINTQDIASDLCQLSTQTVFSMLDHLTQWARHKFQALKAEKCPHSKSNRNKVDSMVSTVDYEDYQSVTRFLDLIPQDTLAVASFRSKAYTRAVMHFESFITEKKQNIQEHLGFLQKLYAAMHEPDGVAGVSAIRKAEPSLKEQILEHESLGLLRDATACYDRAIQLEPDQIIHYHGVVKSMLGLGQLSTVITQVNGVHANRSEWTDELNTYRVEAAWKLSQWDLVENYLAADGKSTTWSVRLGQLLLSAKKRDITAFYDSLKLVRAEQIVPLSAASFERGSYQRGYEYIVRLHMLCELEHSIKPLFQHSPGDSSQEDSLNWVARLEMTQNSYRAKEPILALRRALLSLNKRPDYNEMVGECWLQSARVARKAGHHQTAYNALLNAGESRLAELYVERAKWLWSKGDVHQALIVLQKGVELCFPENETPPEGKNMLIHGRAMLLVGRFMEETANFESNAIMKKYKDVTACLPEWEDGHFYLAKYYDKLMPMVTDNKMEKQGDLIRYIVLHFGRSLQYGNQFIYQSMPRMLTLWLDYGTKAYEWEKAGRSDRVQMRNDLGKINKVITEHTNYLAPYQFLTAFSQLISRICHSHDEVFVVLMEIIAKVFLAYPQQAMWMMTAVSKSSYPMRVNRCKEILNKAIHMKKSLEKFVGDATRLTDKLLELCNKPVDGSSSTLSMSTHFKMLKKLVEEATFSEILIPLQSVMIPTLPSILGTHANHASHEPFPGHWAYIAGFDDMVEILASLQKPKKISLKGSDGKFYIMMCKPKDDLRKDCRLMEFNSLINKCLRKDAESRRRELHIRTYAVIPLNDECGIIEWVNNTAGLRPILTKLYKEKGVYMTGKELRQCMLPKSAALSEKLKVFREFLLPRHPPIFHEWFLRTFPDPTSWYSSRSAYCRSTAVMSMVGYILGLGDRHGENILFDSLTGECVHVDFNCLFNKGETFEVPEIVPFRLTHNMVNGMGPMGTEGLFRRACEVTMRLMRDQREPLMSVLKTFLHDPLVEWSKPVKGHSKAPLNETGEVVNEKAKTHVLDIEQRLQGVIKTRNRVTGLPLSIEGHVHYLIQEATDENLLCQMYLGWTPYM
Substance,solubility in G1/S (log2) (HeLa Kyoto [1]),melting temperature (HeLa Kyoto [2]; cell cycle stage: G1/S) [°C],melting temperature (HeLa Kyoto [2]; cell cycle stage: mitosis) [°C],solubility change mitosis (log2) (HeLa Kyoto [3]),thermal stability score (HeLa Kyoto [4]; [5]),thermal stability score (HeLa Kyoto [4]; cell cycle stage: mitosis)
MAARCSTRWLLVVVGTPRLPAISGRGARPPREGVVGAWLSRKLSVPAFASSLTSCGPRALLTLRPGVSLTGTKHNPFICTASFHTSAPLAKEDYYQILGVPRNASQKEIKKAYYQLAKKYHPDTNKDDPKAKEKFSQLAEAYEVLSDEVKRKQYDAYGSAGFDPGASGSQHSYWKGGPTVDPEELFRKIFGEFSSSSFGDFQTVFDQPQEYFMELTFNQAAKGVNKEFTVNIMDTCERCNGKGNEPGTKVQHCHYCGGSGMETINTGPFVMRSTCRRCGGRGSIIISPCVVCRGAGQAKQKKRVMIPVPAGVEDGQTVRMPVGKREIFITFRVQKSPVFRRDGADIHSDLFISIAQALLGGTARAQGLYETINVTIPPGTQTDQKIRMGGKGIPRINSYGYGDHYIHIKIRVPKRLTSRQQSLILSYAEDETDVEGTVNGVTLTSSGGSTMDSSAGSKARREAGEDEEGFLSKLKKMFTS [DNAJA3],-0.186,48.4,50.3,-0.0129,-0.681,0.373
MAAAAWLQVLPVILLLLGAHPSPLSFFSAGPATVAAADRSKWHIPIPSGKNYFSFGKILFRNTTIFLKFDGEPCDLSLNITWYLKSADCYNEIYNFKAEEVELYLEKLKEKRGLSGKYQTSSKLFQNCSELFKTQTFSGDFMHRLPLLGEKQEAKENGTNLTFIGDKTAMHEPLQTWQDAPYIFIVHIGISSSKESSKENSLSNLFTMTVEVKGPYEYLTLEDYPLMIFFMVMCIVYVLFGVLWLAWSACYWRDLLRIQFWIGAVIFLGMLEKAVFYAEFQNIRYKGESVQGALILAELLSAVKRSLARTLVIIVSLGYGIVKPRLGVTLHKVVVAGALYLLFSGMEGVLRVTGAQTDLASLAFIPLAFLDTALCWWIFISLTQTMKLLKLRRNIVKLSLYRHFTNTLILAVAASIVFIIWTTMKFRIVTCQSDWRELWVDDAIWRLLFSMILFVIMVLWRPSANNQRFAFSPLSEEEEEDEQKEPMLKESFEGMKMRSTKQEPNGNSKVNKAQEDDLKWVEENVPSSVTDVALPALLDSDEERMITHFERSKME [TMEM87A],-0.0314,59,60.5,-0.117,-4.37,-3.56
MVAGSDAGRALGVLSVVCLLHCFGFISCFSQQIYGVVYGNVTFHVPSNVPLKEVLWKKQKDKVAELENSEFRAFSSFKNRVYLDTVSGSLTIYNLTSSDEDEYEMESPNITDTMKFFLYVLESLPSPTLTCALTNGSIEVQCMIPEHYNSHRGLIMYSWDCPMEQCKRNSTSIYFKMENDLPQKIQCTLSNPLFNTTSSIILTTCIPSSGHSRHRYALIPIPLAVITTCIVLYMNGILKCDRKPDRTNSN [CD58],-0.813,55.3,,0.319,-0.387,-1.23
MATANGAVENGQPDRKPPALPRPIRNLEVKFTKIFINNEWHESKSGKKFATCNPSTREQICEVEEGDKPDVDKAVEAAQVAFQRGSPWRRLDALSRGRLLHQLADLVERDRATLAALETMDTGKPFLHAFFIDLEGCIRTLRYFAGWADKIQGKTIPTDDNVVCFTRHEPIGVCGAITPWNFPLLMLVWKLAPALCCGNTMVLKPAEQTPLTALYLGSLIKEAGFPPGVVNIVPGFGPTVGAAISSHPQINKIAFTGSTEVGKLVKEAASRSNLKRVTLELGGKNPCIVCADADLDLAVECAHQGVFFNQGQCCTAASRVFVEEQVYSEFVRRSVEYAKKRPVGDPFDVKTEQGPQIDQKQFDKILELIESGKKEGAKLECGGSAMEDKGLFIKPTVFSEVTDNMRIAKEEIFGPVQPILKFKSIEEVIKRANSTDYGLTAAVFTKNLDKALKLASALESGTVWINCYNALYAQAPFGGFKMSGNGRELGEYALAEYTEVKTVTIKLGDKNP [ALDH1A3],0.122,55.4,57.5,-0.0783,-0.893,-0.266
MEGAKPTLQLVYQAVQALYHDPDPSGKERASFWLGELQRSVHAWEISDQLLQIRQDVESCYFAAQTMKMKIQTSFYELPTDSHASLRDSLLTHIQNLKDLSPVIVTQLALAIADLALQMPSWKGCVQTLVEKYSNDVTSLPFLLEILTVLPEEVHSRSLRIGANRRTEIIEDLAFYSSTVVSLLMTCVEKAGTDEKMLMKVFRCLGSWFNLGVLDSNFMANNKLLALLFEVLQQDKTSSNLHEAASDCVCSALYAIENVETNLPLAMQLFQGVLTLETAYHMAVAREDLDKVLNYCRIFTELCETFLEKIVCTPGQGLGDLRTLELLLICAGHPQYEVVEISFNFWYRLGEHLYKTNDEVIHGIFKAYIQRLLHALARHCQLEPDHEGVPEETDDFGEFRMRVSDLVKDLIFLIGSMECFAQLYSTLKEGNPPWEVTEAVLFIMAAIAKSVDPENNPTLVEVLEGVVRLPETVHTAVRYTSIELVGEMSEVVDRNPQFLDPVLGYLMKGLCEKPLASAAAKAIHNICSVCRDHMAQHFNGLLEIARSLDSFLLSPEAAVGLLKGTALVLARLPLDKITECLSELCSVQVMALKKLLSQEPSNGISSDPTVFLDRLAVIFRHTNPIVENGQTHPCQKVIQEIWPVLSETLNKHRADNRIVERCCRCLRFAVRCVGKGSAALLQPLVTQMVNVYHVHQHSCFLYLGSILVDEYGMEEGCRQGLLDMLQALCIPTFQLLEQQNGLQNHPDTVDDLFRLATRFIQRSPVTLLRSQVVIPILQWAIASTTLDHRDANCSVMRFLRDLIHTGVANDHEEDFELRKELIGQVMNQLGQQLVSQLLHTCCFCLPPYTLPDVAEVLWEIMQVDRPTFCRWLENSLKGLPKETTVGAVTVTHKQLTDFHKQVTSAEECKQVCWALRDFTRLFR [TNPO3],-0.253,51.6,51.7,-0.0891,0.188,1.24
MESESESGAAADTPPLETLSFHGDEEIIEVVELDPGPPDPDDLAQEMEDVDFEEEEEEEGNEEGWVLEPQEGVVGSMEGPDDSEVTFALHSASVFCVSLDPKTNTLAVTGGEDDKAFVWRLSDGELLFECAGHKDSVTCAGFSHDSTLVATGDMSGLLKVWQVDTKEEVWSFEAGDLEWMEWHPRAPVLLAGTADGNTWMWKVPNGDCKTFQGPNCPATCGRVLPDGKRAVVGYEDGTIRIWDLKQGSPIHVLKGTEGHQGPLTCVAANQDGSLILTGSVDCQAKLVSATTGKVVGVFRPETVASQPSLGEGEESESNSVESLGFCSVMPLAAVGYLDGTLAIYDLATQTLRHQCQHQSGIVQLLWEAGTAVVYTCSLDGIVRLWDARTGRLLTDYRGHTAEILDFALSKDASLVVTTSGDHKAKVFCVQRPDR [AAMP],-0.15,51.3,51.6,-0.112,-1.15,-3.66
MSGASSSEQNNNSYETKTPNLRMSEKKCSWASYMTNSPTLIVMIGLPARGKTYVSKKLTRYLNWIGVPTKVFNLGVYRREAVKSYKSYDFFRHDNEEAMKIRKQCALVALEDVKAYLTEENGQIAVFDATNTTRERRDMILNFAEQNSFKVFFVESVCDDPDVIAANILEVKVSSPDYPERNRENVMEDFLKRIECYKVTYRPLDPDNYDKDLSFIKVINVGQRFLVNRVQDYIQSKIVYYLMNIHVQPRTIYLCRHGESEFNLLGKIGGDSGLSVRGKQFAQALRKFLEEQEITDLKVWTSQLKRTIQTAESLGVPYEQWKILNEIDAGVCEEMTYAEIEKRYPEEFALRDQEKYLYRYPGGESYQDLVQRLEPVIMELERQGNVLVISHQAVMRCLLAYFLDKGADELPYLRCPLHTIFKLTPVAYGCKVETIKLNVEAVNTHRDKPTNNFPKNQTPVRMRRNSFTPLSSSNTIRRPRNYSVGSRPLKPLSPLRAQDMQEGAD [PFKFB2],0.16,53.9,53.3,-0.071,0.139,0.693
MSLSDWHLAVKLADQPLTPKSILRLPETELGEYSLGGYSISFLKQLIAGKLQESVPDPELIDLIYCGRKLKDDQTLDFYGIQPGSTVHVLRKSWPEPDQKPEPVDKVAAMREFRVLHTALHSSSSYREAVFKMLSNKESLDQIIVATPGLSSDPIALGVLQDKDLFSVFADPNMLDTLVPAHPALVNAIVLVLHSVAGSAPMPGTDSSSRSMPSSSYRDMPGGFLFEGLSDDEDDFHPNTRSTPSSSTPSSRPASLGYSGAAGPRPITQSELATALALASTPESSSHTPTPGTQGHSSGTSPMSSGVQSGTPITNDLFSQALQHALQASGQPSLQSQWQPQLQQLRDMGIQDDELSLRALQATGGDIQAALELIFAGGAP [UBL7],0.396,50.8,50.8,0.156,-0.52,-0.245
ATR,-0.368,50.7,50.5,-0.097,-0.0687,0.0624
MPVFHTRTIESILEPVAQQISHLVIMHEEGEVDGKAIPDLTAPVAAVQAAVSNLVRVGKETVQTTEDQILKRDMPPAFIKVENACTKLVQAAQMLQSDPYSVPARDYLIDGSRGILSGTSDLLLTFDEAEVRKIIRVCKGILEYLTVAEVVETMEDLVTYTKNLGPGMTKMAKMIDERQQELTHQEHRVMLVNSMNTVKELLPVLISAMKIFVTTKNSKNQGIEEALKNRNFTVEKMSAEINEIIRVLQLTSWDEDAWASKDTEAMKRALASIDSKLNQAKGWLRDPSASPGDAGEQAIRQILDEAGKVGELCAGKERREILGTCKMLGQMTDQVADLRARGQGSSPVAMQKAQQVSQGLDVLTAKVENAARKLEAMTNSKQSIAKKIDAAQNWLADPNGGPEGEEQIRGALAEARKIAELCDDPKERDDILRSLGEISALTSKLADLRRQGKGDSPEARALAKQVATALQNLQTKTNRAVANSRPAKAAVHLEGKIEQAQRWIDNPTVDDRGVGQAAIRGLVAEGHRLANVMMGPYRQDLLAKCDRVDQLTAQLADLAARGEGESPQARALASQLQDSLKDLKARMQEAMTQEVSDVFSDTTTPIKLLAVAATAPPDAPNREEVFDERAANFENHSGKLGATAEKAAAVGTANKSTVEGIQASVKTARELTPQVVSAARILLRNPGNQAAYEHFETMKNQWIDNVEKMTGLVDEAIDTKSLLDASEEAIKKDLDKCKVAMANIQPQMLVAGATSIARRANRILLVAKREVENSEDPKFREAVKAASDELSKTISPMVMDAKAVAGNISDPGLQKSFLDSGYRILGAVAKVREAFQPQEPDFPPPPPDLEQLRLTDELAPPKPPLPEGEVPPPRPPPPEEKDEEFPEQKAGEVINQPMMMAARQLHDEARKWSSKPGIPAAEVGIGVVAEADAADAAGFPVPPDMEDDYEPELLLMPSNQPVNQPILAAAQSLHREATKWSSKGNDIIAAAKRMALLMAEMSRLVRGGSGTKRALIQCAKDIAKASDEVTRLAKEVAKQCTDKRIRTNLLQVCERIPTISTQLKILSTVKATMLGRTNISDEESEQATEMLVHNAQNLMQSVKETVREAEAASIKIRTDAGFTLRWVRKTPWYQ [VCL],0.182,56.4,55.4,-0.0931,-1.64,-1.78
